Test: yeast display, Sf9 membrane polyspecificity reagent, FACS + sequencing; frameworks hold sequencing errors
Procedure, shortened: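 A nanobody's polyreactivity label depends on the gate it was sorted from. Yeast display cells were stained with 10% biotinylated, detergent-solubilized Sf9 membrane reagent for 1 hour at 4 °C, enriched on streptavidin microbeads and sorted by FACS. The low and high (top ~1%) gates were set on anti-HA fluorescence for expression and streptavidin fluorescence for reagent binding.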

Row | Sequence | polyreactivity (PSR sort gate)
1 | QVQLVESGGGLVQAGGSLRLSCAASGSIFLWNAMGWYRQAPGKERELVAAISSSGGSTYYADSVKGRFTISRDNAKNTVYLQMNSLKPEDTAVYYCAAVSRSYYNSYNYWGQGTQVTVSS | high polyreactivity
2 | QVQLVESGGGLVQAGGSLRLSCAASGSIFLWYAMGWYRQAPGKERELVAAIDWSGGSTYYADSVKGRFTISRDNAKNTVYLQMNSLKPEDTAGYDCAAEWGNWYWWDYGYDYYYWGQGTQVTVSS | high polyreactivity
3 | QVQLVESGGGLVQAGGSLRLSCAASGSIFLWYTMGWYRQAPGKERELVAAISRTGGSTYYADSVKGRFTISRDNAKNTVYLQMNSLKPEETAVYYCAASFRPRSSRDYYYGYGYWGQGTQVTVSS | high polyreactivity
4 | QVQLVESGGGLVQAGGSLRLSCAASGSIFLYNAMGWYIQAPGKERELVAAISRSSTSTYYADSVKGRFTISRDNAKNTVYLQMNSLKPEDTAVYYCAARGRVTYWGQGTQVTVSS | high polyreactivity
5 | QVQLVESGGGLVQAGGSLRLSCAASGSIFLYNDMGWYRQAPGKERELVAAITSTGNTNYADSVKGRFTISRDNAKNTVYLQMNSLNRKIPRSITALNVSCTSVVVGYDYWGQGTQVTVSS | low polyreactivity
6 | QVQLVESGGGLVQAGGSLRLSCAASGSIFLYNTMGWYRQAPGKERELVAAISFSGVTTYYADSVKGRFTISRDNAKNTVYLQMNSLKPEDTAVYYCNKYLWKFTNSPLGDYYWGQGTQVTVSS | high polyreactivity
7 | QVQLVESGGGLVQAGGSLRLSCAASGSIFLYNTMGWYRQAPGKERELVAAITSGGNTNYADSVKGRFTISRDNAKNTVYLQMNSLKPEDTAVYYCNVDLKAWLPDGGSVDYWGQGTQVTVSS | low polyreactivity
8 | QVQLVESGGGLVQAGGSLRLSCAASGSIFLYNTMGWYRQAPGKERELVAAITYSGGSTYYADSVKGRFTISRDYAKNTVYLQMNSLKPEDTAVDYCNARHYSAYYSWGQGTQVTVSS | high polyreactivity
9 | QVQLVESGGGLVQAGGSLRLSCAASGSIFLYYAMGWYRQAPGKERELVAAISGRAGSTYYADSVKGRFTISRDNAKNTVYLQMNSLKPEDTSVYYCAAGYWHGYPGFKYYWGQGTQVTVSS | low polyreactivity
10 | QVQLVESGGGLVQAGGSLRLSCAASGSIFLYYVMGWYRQAPGKERELVAAITWDGGSTYYADSVKGRFTISRDNAKNTVYLQMNSLKPEDTAVYYCNADTIVAWFDIFEEMDSWGQGTQVTVSS | low polyreactivity
11 | QVQLVESGGGLVQAGGSLRLSCAASGSIFNANAMGWYRPAPGKERELVAGIRSGSSTNYADSVKGRFTISRDNAKNTVYLQMNSLKPEDTAVYYCATEGYWVYGFDDEYWGQGTQVTVSS | low polyreactivity
12 | QVQLVESGGGLVQAGGSLRLSCAASGSIFNANAMGWYRQAPAKERELVAAITPSDGDTYYADSVKGRFTISRDNAKNTVYLQMNSLKPEDTAVYYCAAEDDPGEYEYWGQGTQVTVSS | low polyreactivity
13 | QVQLVESGGGLVQAGGSLRLSCAASGSIFNANTMGWYRQAPGKERELVAVITSGGSTYYADSVKGRFTISRDNAKNTVYLQMNSLKPEDTAVYYCAKDPGPYDYDYWGQGTQVTVSS | low polyreactivity
14 | QVQLVESGGGLVQAGGSLRLSCAASGSIFNDNVMGWYRQAPGKERELVAGISRSGTRTYYADSVKGRFTISRDNAKNTVYLQMNSLKPEDTAVYYCAAAYGQARRYNGSQYGSWGQGTQVTVSS | high polyreactivity
15 | QVQLVESGGGLVQAGGSLRLSCAASGSIFNGYALGWYRQAPGKERELVAAISSGGCTNYADSVKGSFTISRDNAKNTVYLQMNSLKPEDTAVYYCDKDYGYYWPWHYIASYEYDYWGQGTQVTVSS | low polyreactivity
16 | QVQLVESGGGLVQAGGSLRLSCAASGSIFNGYVMGLYRQAPGKERELVAAISSGGRTYYADSVKGRFTISRDNAKNTVYLQMNSLKPEDTAVYYCAADIWYFDYDYWGQGTQVTVSS | high polyreactivity
17 | QVQLVESGGGLVQAGGSLRLSCAASGSIFNGYVMGWYTQAPGKERELVAANSRSGGRTYYADSVKGRFTISRDNAKNTVYLQMNSLKPEDTAVYYCAARNYLYAIMGKWLDYNYWGQGTQVTVSS | high polyreactivity
18 | QVQLVESGGGLVQAGGSLRLSCAASGSIFNINAMGWYRQAPGKERELVATITSGGTASYADSVKGRFTISRDNAKNTVYLQMNSLKPEDTAVYDCNAEMYPIVKAGRQHPRRYDYWGQGTQVTVSS | low polyreactivity
19 | QVQLVESGGGLVQAGGSLRLSCAASGSIFNIYAMGWDRQAPGKERELVAAIRWTGGSTYYADSVKGRFTISRDTAKNTVDLQMTSLKPEATAVYYCAARTSRGGHYYWGPGTQVTVSS | high polyreactivity
20 | QVQLVESGGGLVQAGGSLRLSCAASGSIFNIYAMGWYRQAPGKERELVATITGIADSTYYADSVKGRFTISRDNAKNTVYLQMNSLKPEDTAVYFCAAKYGSRYTTGQTRRDYYSWGQGTQVTVSS | low polyreactivity
21 | QVQLVESGGGLVQAGGSLRLSCAASGSIFNIYAMGWYRQAPGKERELVATITGIADSTYYADSVKGRFTISRDNAKNTVYLQMNSLKPEDTAVYYCNADPSGVFFYSLEFDYWGQGTQVTVSS | low polyreactivity
22 | QVQLVESGGGLVQAGGSLRLSCAASGSIFNKNVMGWYRQAPGKERELVAAITSGGGSTYYADSVKGRFTISRDNAKNTVYLQMNSLKPEDTAVYYCAAGRGLYEYNYWGQGTQVTVSS | high polyreactivity

Row | Sequence | polyreactivity (PSR sort gate)
23 | QVQLVESGGGLVQAGGSLRLSCAASGSIFNLYTMGWYRQAPGKEREFVSAISSSGTSTYYADSVKGRFTISRDNAKNTVYLQMNSLKPEDTAVYYCAADWTGGFYTWYVIPYDYWGQGTQVTVSS | low polyreactivity
24 | QVQLVESGGGLVQAGGSLRLSCAASGSIFNLYTMGWYRQAPGKERELVAVITGGGSTYYADSVKGRFTISRDNAKNTVYLQMNSLKPDDTAVYYCAAKGPYYKSSRTGDYWGQGTQVTVSS | low polyreactivity
25 | QVQLVESGGGLVQAGGSLRLSCAASGSIFNPYAMGWYRQAPGKERELVAVIRSRGDRTYYADSVKGRFTISRDYAKNTVYLQMNSLKPEDTAVYYCAVRAQESLWKQYYYWGQGTQVTVSS | high polyreactivity
26 | QVQLVESGGGLVQAGGSLRLSCAASGSIFNRNAMGWYRQAPGKERELVAAINYSGGSTYYADSVKGRFTISRDNAKNTVYLQMNSLKPEDTAVYYCAARPVALRKYDYWGQGTQVTVSS | low polyreactivity
27 | QVQLVESGGGLVQAGGSLRLSCAASGSIFNRNAMGWYRQARGKERELVAAITGSGGRTYYADSVKGRFTISRDNAKNTVYLQMNSLKPEDTAVYYCAARWGYYRYYIFDYWGQGTQVTVSS | high polyreactivity
28 | QVQLVESGGGLVQAGGSLRLSCAASGSIFNRYAMGWYRKAPGKERELVAAMSSTGSTYYADSVKGRFTISRDNAKNTVYLQMNSLKPEDTAVYYCNADATPDWLRVDTYEYWGQGTQVTVSS | low polyreactivity
29 | QVQLVESGGGLVQAGGSLRLSCAASGSIFNRYAMGWYRQAPGKERELVAAIRSGDNTNYADSVKGRFTISRDNAKNTVYLQMNSLKPEDTAVYYCNARYGGYRARYTYNYWGQGTQVTVSS | high polyreactivity
30 | QVQLVESGGGLVQAGGSLRLSCAASGSIFNRYAMGWYRQAPGKERELVASISWRTASTYYADSVKGRFTISRDNAKNTVYLQMNSLKPEDTAVYYCAAKILGRPGYYYWGQGTQVTVSS | high polyreactivity
31 | QVQLVESGGGLVQAGGSLRLSCAASGSIFNRYAMGWYRQAPGKERQFVAAITRRGGNTYYADSVKGRFTISRDNAKNTVYLQMNSLKREDTAVYYCAAPFYYPAGLLYYENNYWGQGTQVTVSS | high polyreactivity
32 | QVQLVESGGGLVQAGGSLRLSCAASGSIFNRYTMGSYRQAPGKEREFVAAISSSGTSTYYADSVKGRFTISRDNAMNTVYLQMNSLKPEDTAVYYCAADYYRTPKSGSSGLDYWGQGTQVTVSS | low polyreactivity
33 | QVQLVESGGGLVQAGGSLRLSCAASGSIFNSNAMGWYRPAPGKERELVAAITGSGGRTYYADSVKGRFTISRDNAKNTVYLKMNSLKPEDTAVYYCNVTRGTIGGYSYWGQGTQVTVSS | high polyreactivity
34 | QVQLVESGGGLVQAGGSLRLSCAASGSIFNSNAMGWYRQAPGKERELVAVISWSDGSTRYADSVKGRFTISRDNVKNTVYLQMNSLKPEDTAVYYCAADYLDGIYEYDYWGQGTQVTVSS | low polyreactivity
35 | QVQLVESGGGLVQAGGSLRLSCAASGSIFNSYAMGWYRQAPGKETELVAAITRSDGSTYYADSVKGRFTISRDKAKNTVYLQMNSLKPEDTAVYYCAKGVGGYIYSEYDYWGQGTQVTVSS | low polyreactivity
36 | QVQLVESGGGLVQAGGSLRLSCAASGSIFNVNAMGWYRQAPGKERELVAAISSGGDTYYADSVKGRFTISRDNAKNTVYLQMNSLKPEDTAVYYCAKQSYTLYTLLYDYWGQGTQVTVSS | low polyreactivity
37 | QVQLVESGGGLVQAGGSLRLSCAASGSIFNWYAMGWYRQAPGKERELVAAISSSGSTNYADSVKGRFTISRDNAKNTVYLQMNSLKPEDTAVYYCNADEYYLNNYNYGYWGQGTQVTVSS | low polyreactivity
38 | QVQLVESGGGLVQAGGSLRLSCAASGSIFNYNAMGWYRHAPGKERELFAAITYHGGSTYYADSVKGRFTISRDNAKYTVYLQMNSLKPEDTAVYYCNALRGYRPGWFDYWGQGTQVTVSS | high polyreactivity
39 | QVQLVESGGGLVQAGGSLRLSCAASGSIFNYNAMGWYRQAPGKERELVAAISSGGSTNYADSVKGRFTISRDNAKNTVYLQMNSLKPEDTAVYYCAKRWWVYYPRYDYWGQGTQVTVSS | high polyreactivity
40 | QVQLVESGGGLVQAGGSLRLSCAASGSIFNYYAMGWYRQAPGKERELVAAISTSGGRTYYADSVKGRFTISRDNAKKTVYLQMNSLKPEDTAVYYCNAVSRTRAGAGDYWGQGTQVTVSS | high polyreactivity
41 | QVQLVESGGGLVQAGGSLRLSCAASGSIFNYYAMGWYRQAPGKERELVAAITSADGRTFYADSVKGRFTISRDNANNTVYLQMNSLKPDDTAVYYCAAERTSRYSTYEYWGQGTQVTVSS | low polyreactivity
42 | QVQLVESGGGLVQAGGSLRLSCAASGSIFNYYDMGWYRQAPGKEREFVARITIGGSSTNYADSVKGRFTISRDNAKNTVYLQMNSLKPEDTAVYYCAASQYGIFFSQMDYWGQGTQVTVSS | low polyreactivity
43 | QVQLVESGGGLVQAGGSLRLSCAASGSIFNYYTMGWYRQAPGKERELVAAITWSGGRTYYADSVKGRFTISRDNAKNTVYLQMNSLKPEDTAVYYCNAVAYKPGGGDDFESWGQGTQLTVSS | high polyreactivity
